Reference: the supplement of paper PMC7877785
± gives the uncertainty stated by the source.

Assay: self-splicing fitness, log relative to wild type (ln ratio); higher = more splicing; Tetrahymena group I intron in knt gene, E. coli kanamycin selection, DiMSum; sequences stand for … in CUCUCU…GGAGGGAAAAGUUAUCAGGCAUGCACCUGGUAGCUAGUCUUUAAACCAAUAGAUUGCAUCGGUUUAAAAGGCAAGACCGUCAAAUUGCGGGAAAGGGGUCAACAGCCGUUCAGUACCAAGUCUCAGGGGAAACUUUGAGAUGGCCUUGCAAAGGGUAUGGUAAUAAGCUGACGGACAUGGUCCUAACCACGCAGCCAAGUCCUAAGUCAACAGAUCUUCUGUUGAUAUGGAUGCAGUUCACAGACUAAAUGUCGGUCGGGGAAGAUGUAUUCUUCUCAUAAGAUAUAGUCGGACCUCUCCUUAAUGGGAGCUAGCGGAUGAAGUGAUGCAACACUGGAGCCGCUGGGAACUAAUUUGUAUGCGAAAGUAUAUUGAUUAGUUUUGGAGUACUCGUGGUCG
In short: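 Pooled colonies went to amplicon sequencing on an Illumina HiSeq 2500 after six replicate transformations. The plates were LB agar with 100 μg/mL carbenicillin, 50 μM IPTG and 0.2% rhamnose, with or without 25 μg/mL kanamycin, incubated overnight at 37°C or 30°C. The E. coli BL21(DE3) library had all eight P1ex-region intron nucleotides randomised, the intron placed in the knt kanamycin-resistance gene on pET-22b(+). DiMSum fitness is the error-weighted combination of replicate fold changes, kanamycin against none, normalised to wild type.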

With GCAGAGCAAUAUUACGUCUC the “self-splicing fitness (ln)” value (37 °C) was -2.17 ± 0.31.
With AGUUAGCAAUAUUACGCUUU the “self-splicing fitness (ln)” value (30 °C) was -2.56 ± 0.13 and the “self-splicing fitness (ln)” value (37 °C) was -1.09 ± 0.13.
For GGGCAGCAAUAUUACGACAU, the “self-splicing fitness (ln)” value (30 °C) was -0.411 ± 0.013 and the “self-splicing fitness (ln)” value (37 °C) was 0.0276 ± 0.033.
For UUAGAGCAAUAUUACGGAUU, the “self-splicing fitness (ln)” value (30 °C) was -3.74 ± 0.28 and the “self-splicing fitness (ln)” value (37 °C) was -2.48 ± 0.27.
With GUUAAGCAAUAUUACGCGCA the “self-splicing fitness (ln)” value (30 °C) was -0.293 ± 0.12 and the “self-splicing fitness (ln)” value (37 °C) was 0.115 ± 0.15.
With GCCUAGCAAUAUUACGGGUG the “self-splicing fitness (ln)” value (30 °C) was -1.02 ± 0.056 and the “self-splicing fitness (ln)” value (37 °C) was -0.101 ± 0.067.
For UGUGAGCAAUAUUACGCUCU, the “self-splicing fitness (ln)” value (30 °C) was -1.26 ± 0.3.
In the case of AGAUAGCAAUAUUACGCAUU, the “self-splicing fitness (ln)” value (30 °C) is reported as -2.76 ± 0.21 and the “self-splicing fitness (ln)” value (37 °C) is reported as -1.02 ± 0.21.
In the case of AAUAAGCAAUAUUACGCAAA, the “self-splicing fitness (ln)” value (30 °C) is reported as -1.62 ± 0.23 and the “self-splicing fitness (ln)” value (37 °C) is reported as -2.05 ± 0.25.
For GGGUAGCAAUAUUACGAUAC, the “self-splicing fitness (ln)” value (30 °C) was -1.98 ± 0.22 and the “self-splicing fitness (ln)” value (37 °C) was -0.628 ± 0.24.
For AUCGAGCAAUAUUACGUCUC, the “self-splicing fitness (ln)” value (30 °C) was -3.13 ± 0.22 and the “self-splicing fitness (ln)” value (37 °C) was -2.18 ± 0.33.
In the case of UGACAGCAAUAUUACGUGAA, the “self-splicing fitness (ln)” value (30 °C) is reported as -1.94 ± 0.076 and the “self-splicing fitness (ln)” value (37 °C) is reported as -0.332 ± 0.094.
In the case of AAAGAGCAAUAUUACGUCCC, the “self-splicing fitness (ln)” value (30 °C) is reported as -2.1 ± 0.28 and the “self-splicing fitness (ln)” value (37 °C) is reported as -1.07 ± 0.35.
In the case of CAGGAGCAAUAUUACGAUGG, the “self-splicing fitness (ln)” value (30 °C) is reported as -0.317 ± 0.091 and the “self-splicing fitness (ln)” value (37 °C) is reported as 0.171 ± 0.13.
With GCCGAGCAAUAUUACGUUCA the “self-splicing fitness (ln)” value (30 °C) was -1.03 ± 0.11 and the “self-splicing fitness (ln)” value (37 °C) was -0.854 ± 0.14.
With GCGCAGCAAUAUUACGACAU the “self-splicing fitness (ln)” value (30 °C) was -0.277 ± 0.012 and the “self-splicing fitness (ln)” value (37 °C) was 0.253 ± 0.032.
In the case of UGCUAGCAAUAUUACGAGUA, the “self-splicing fitness (ln)” value (30 °C) is reported as -1.34 ± 0.072 and the “self-splicing fitness (ln)” value (37 °C) is reported as -0.447 ± 0.076.
With UAUUAGCAAUAUUACGUACA the “self-splicing fitness (ln)” value (30 °C) was -0.773 ± 0.22 and the “self-splicing fitness (ln)” value (37 °C) was -0.493 ± 0.23.
With UACGAGCAAUAUUACGUACU the “self-splicing fitness (ln)” value (30 °C) was -3.32 ± 0.32 and the “self-splicing fitness (ln)” value (37 °C) was -1.76 ± 0.22.
In the case of CCCAAGCAAUAUUACGUUGU, the “self-splicing fitness (ln)” value (30 °C) is reported as -3.3 ± 0.095 and the “self-splicing fitness (ln)” value (37 °C) is reported as -2.43 ± 0.11.
In the case of GACGAGCAAUAUUACGCUAA, the “self-splicing fitness (ln)” value (30 °C) is reported as -2.64 ± 0.35 and the “self-splicing fitness (ln)” value (37 °C) is reported as -2.25 ± 0.31.
For GACCAGCAAUAUUACGUCAA, the “self-splicing fitness (ln)” value (30 °C) was -2.51 ± 0.18 and the “self-splicing fitness (ln)” value (37 °C) was -1.06 ± 0.1.
In the case of ACGAAGCAAUAUUACGAGUU, the “self-splicing fitness (ln)” value (30 °C) is reported as -3.04 ± 0.11 and the “self-splicing fitness (ln)” value (37 °C) is reported as -1.91 ± 0.15.
For GAAGAGCAAUAUUACGGUUA, the “self-splicing fitness (ln)” value (30 °C) was -1.49 ± 0.19 and the “self-splicing fitness (ln)” value (37 °C) was -1.27 ± 0.23.
In the case of UGUCAGCAAUAUUACGCGCA, the “self-splicing fitness (ln)” value (30 °C) is reported as -1.67 ± 0.13 and the “self-splicing fitness (ln)” value (37 °C) is reported as -0.608 ± 0.14.
For UAAGAGCAAUAUUACGUUCC, the “self-splicing fitness (ln)” value (37 °C) was -1.98 ± 0.39.
For UCUGAGCAAUAUUACGAUCG, the “self-splicing fitness (ln)” value (37 °C) was -0.514 ± 0.41.
For CCAAAGCAAUAUUACGACAG, the “self-splicing fitness (ln)” value (30 °C) was -0.638 ± 0.066 and the “self-splicing fitness (ln)” value (37 °C) was -0.249 ± 0.089.
With AGAUAGCAAUAUUACGACCG the “self-splicing fitness (ln)” value (30 °C) was -1.01 ± 0.17 and the “self-splicing fitness (ln)” value (37 °C) was 0.121 ± 0.32.
With AAUAAGCAAUAUUACGAUUG the “self-splicing fitness (ln)” value (30 °C) was -2.35 ± 0.18 and the “self-splicing fitness (ln)” value (37 °C) was -1.91 ± 0.23.
With UCAGAGCAAUAUUACGAUGU the “self-splicing fitness (ln)” value (30 °C) was -1.87 ± 0.077 and the “self-splicing fitness (ln)” value (37 °C) was -1.41 ± 0.093.
With GACUAGCAAUAUUACGACUC the “self-splicing fitness (ln)” value (30 °C) was -0.54 ± 0.097 and the “self-splicing fitness (ln)” value (37 °C) was 0.55 ± 0.14.
With CGAUAGCAAUAUUACGAGGA the “self-splicing fitness (ln)” value (30 °C) was -3.08 ± 0.38 and the “self-splicing fitness (ln)” value (37 °C) was -2.27 ± 0.38.
With AGAUAGCAAUAUUACGAGGC the “self-splicing fitness (ln)” value (30 °C) was -0.902 ± 0.39 and the “self-splicing fitness (ln)” value (37 °C) was -0.819 ± 0.21.
In the case of CCGUAGCAAUAUUACGCCCG, the “self-splicing fitness (ln)” value (30 °C) is reported as -0.871 ± 0.15 and the “self-splicing fitness (ln)” value (37 °C) is reported as -0.0634 ± 0.21.
For UUGAAGCAAUAUUACGAGUG, the “self-splicing fitness (ln)” value (30 °C) was -0.347 ± 0.055 and the “self-splicing fitness (ln)” value (37 °C) was -0.22 ± 0.077.
With CGCAAGCAAUAUUACGCCGG the “self-splicing fitness (ln)” value (30 °C) was -0.626 ± 0.12 and the “self-splicing fitness (ln)” value (37 °C) was -0.476 ± 0.17.
With AUUCAGCAAUAUUACGAGCC the “self-splicing fitness (ln)” value (30 °C) was -2.87 ± 0.47 and the “self-splicing fitness (ln)” value (37 °C) was -1.67 ± 0.45.
With GGGGAGCAAUAUUACGUUUU the “self-splicing fitness (ln)” value (30 °C) was -3.04 ± 0.18 and the “self-splicing fitness (ln)” value (37 °C) was -2.86 ± 0.25.
In the case of AAUGAGCAAUAUUACGUUGC, the “self-splicing fitness (ln)” value (30 °C) is reported as -4.6 ± 0.45 and the “self-splicing fitness (ln)” value (37 °C) is reported as -2.78 ± 0.29.
In the case of UACUAGCAAUAUUACGACCC, the “self-splicing fitness (ln)” value (37 °C) is reported as -0.364 ± 0.39.
With CAUUAGCAAUAUUACGCCAC the “self-splicing fitness (ln)” value (30 °C) was -2.71 ± 0.44 and the “self-splicing fitness (ln)” value (37 °C) was -2.41 ± 0.35.
With GGGCAGCAAUAUUACGGCCA the “self-splicing fitness (ln)” value (30 °C) was 0.461 ± 0.14 and the “self-splicing fitness (ln)” value (37 °C) was 0.258 ± 0.17.
For AGGAAGCAAUAUUACGAGAG, the “self-splicing fitness (ln)” value (30 °C) was -3.03 ± 0.14 and the “self-splicing fitness (ln)” value (37 °C) was -2.29 ± 0.17.
For GCGGAGCAAUAUUACGGUAU, the “self-splicing fitness (ln)” value (30 °C) was -3.38 ± 0.24 and the “self-splicing fitness (ln)” value (37 °C) was -2.95 ± 0.26.
For UUCGAGCAAUAUUACGGCUA, the “self-splicing fitness (ln)” value (30 °C) was -1.51 ± 0.38 and the “self-splicing fitness (ln)” value (37 °C) was -0.029 ± 0.37.
For GUUUAGCAAUAUUACGCCAC, the “self-splicing fitness (ln)” value (30 °C) was -1.72 ± 0.46.
In the case of AGUCAGCAAUAUUACGAAUU, the “self-splicing fitness (ln)” value (30 °C) is reported as -0.652 ± 0.064 and the “self-splicing fitness (ln)” value (37 °C) is reported as -0.509 ± 0.076.
With UAGCAGCAAUAUUACGAUGC the “self-splicing fitness (ln)” value (37 °C) was -1.66 ± 0.49.
